Test results as given in patent publication US20230381229A1.
Where a chain is given by its changes, count along the chain named. Names and notes keep the numbering of the source. Each block holds one binder with its values, some of them ahead of it.

What was measured:
[1] = biological target: PD-1 expressed on cells (human); test: flow cytometry, cells expressing PD-1
[2] = biological target: CD80 expressed on cells (Homo sapiens); test: flow cytometry, cells expressing CD80
CD28 (human) = test: flow cytometry on HEK293 cells transfected with CD28
PD-1-Fc (Homo sapiens) = test: ForteBio, PD-1-Fc
Sequence of PD-1-Fc (Homo sapiens) (chain, as listed by the source limits assumed): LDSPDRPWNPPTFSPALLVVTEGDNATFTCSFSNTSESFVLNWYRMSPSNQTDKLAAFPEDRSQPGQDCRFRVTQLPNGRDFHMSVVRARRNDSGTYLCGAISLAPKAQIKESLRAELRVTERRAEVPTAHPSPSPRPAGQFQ

[3] = biological target: PD-1 expressed on cells (human); test: flow cytometry, Jurkat/PD-1 cells

Sequence of PD-1 expressed on cells (human) (chain, as listed by the source): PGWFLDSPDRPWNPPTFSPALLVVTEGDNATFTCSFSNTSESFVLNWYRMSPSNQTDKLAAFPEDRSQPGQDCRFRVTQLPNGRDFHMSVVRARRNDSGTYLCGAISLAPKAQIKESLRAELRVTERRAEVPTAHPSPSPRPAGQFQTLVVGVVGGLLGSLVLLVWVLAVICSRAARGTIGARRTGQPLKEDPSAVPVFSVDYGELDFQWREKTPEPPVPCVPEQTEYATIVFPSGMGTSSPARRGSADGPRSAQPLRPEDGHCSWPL

Fold Change Compared to WT PD-L1 [1]: 0
MFI at 20 nM [1]: 70
Fold Change Compared to WT PD-L1 [2]: 3.1
MFI at 20 nM [2]: 412
B1: variant PD-L1 ECD-Fc Y10F, M18V, S99G, Q138R, T203A (Fc fusion)
chain: FTVTVPKDLFVVEYGSNVTIECKFPVEKQLDLAALIVYWEMEDKNIIQFVHGEEDLKVQHSSYRQRARLLKDQLSLGNAALQITDVKLQDAGVYRCMIGYGGADYKRITVKVNAPYNKINQRILVVDPVTSEHELTCRAEGYPKAEVIWTSSDHQVLSGKTTTTNSKREEKLFNVTSTLRINTTTNEIFYCTFRRLDPEENHAAELVIPELPLAHPPNER

MFI at 66.6 nM (CD28 (human)): 3070
B2: WT CD80 IgV/IgC-Fc (Fc fusion)
chain: VIHVTKEVKEVATLSCGHNVSVEELAQTRIYWQKEKKMVLTMMSGDMNIWPEYKNRTIFDITNNLSIVILALRPSDEGTYECVVLKYEKDAFKREHLAEVTLSVKADFPTPSISDFEIPTSNIRRIICSTSGGFPEPHLSWLENGEELNAINTTVSQDPETELYAVSSKLDFNMTTNHSFMCLIKYGHLRVNQTFNWNTTKQEHFPDN

MFI at 20 nM [1]: 3500
B3: variant PD-L1 ECD-Fc I36S, M41K, M97L, K144Q, R195G, E200K, H202Q, L206F (Fc fusion)
chain: FTVTVPKDLYVVEYGSNMTIECKFPVEKQLDLAALSVYWEKEDKNIIQFVHGEEDLKVQHSSYRQRARLLKDQLSLGNAALQITDVKLQDAGVYRCLISYGGADYKRITVKVNAPYNKINQRILVVDPVTSEHELTCQAEGYPQAEVIWTSSDHQVLSGKTTTTNSKREEKLFNVTSTLRINTTTNEIFYCTFRGLDPEKNQTAEFVIPELPLAHPPNER

Fold Change Compared to WT PD-L1 [1]: 0.8
Fold Change Compared to WT PD-L1 [2]: 81.8
MFI at 20 nM [2]: 11000
B4: variant PD-L1 ECD-Fc K57R, S99G, R195G (Fc fusion)
chain: B1 chain with F10Y, V18M, K57R, R138Q, R195G, A203T

Fold Change Compared to WT PD-L1 [1]: 3.2
Fold Change Compared to WT PD-L1 [2]: 547
B5: variant PD-L1 ECD-Fc N17D, M97L, S99G (Fc fusion)
chain: B1 chain with F10Y, N17D, V18M, M97L, R138Q, A203T

Fold Change Compared to WT PD-L1 [1]: 0
MFI at 20 nM [1]: 69
Fold Change Compared to WT PD-L1 [2]: 9.3
MFI at 20 nM [2]: 1250
B6: variant PD-L1 ECD-Fc I36T, M97L, Q155H, F193S, N201Y (Fc fusion)
chain: B1 chain with F10Y, V18M, I36T, M97L, G99S, R138Q, Q155H, F193S, N201Y, A203T

Fold Change Compared to WT PD-L1 [1]: 0.7
Fold Change Compared to WT PD-L1 [2]: 105
B7: variant PD-L1 ECD-Fc K57R, S99G, L124S, K144Q (Fc fusion)
chain: B1 chain with F10Y, V18M, K57R, L124S, R138Q, K144Q, A203T

MFI at 20 nM [1]: 62
B8: variant PD-L1 ECD-Fc I36T, I83T, M97L, K144E, P198T (Fc fusion)
chain: B3 chain with S36T, K41M, I83T, Q144E, G195R, P198T, K200E, Q202H, F206L

Fortebio binding to PD-1-Fc Response Units (Response Units) (PD-1-Fc (Homo sapiens)): 0.007
Fold increase over wildtype PD-L2 IgV-Fc [3]: 1.63
MFI at 50 nM [3]: 16000
B9: variant PD-L2 IgV-Fc H15Q (Fc fusion)
chain: LFTVTVPKELYIIEQGSNVTLECNFDTGSHVNLGAITASLQKVENDTSPHRERATLLEEQLPLGKASFHIPQVQVRDEGQYQCIIIYGVAWDYKYLTLKVKA

Fortebio binding to PD-1-Fc Response Units (Response Units) (PD-1-Fc (Homo sapiens)): 0.4
B10: variant PD-L2 IgV-Fc H15Q, N24S, T47A, Q72H, R76G, V89D (Fc fusion)
chain: B9 chain with N24S, T47A, Q72H, R76G, V89D

MFI at 50 nM [3]: 4050
B11: variant PD-L2 IgV-Fc H15Q, Q72H, Q74R, R76G, I86T (Fc fusion)
chain: B9 chain with Q72H, Q74R, R76G, I86T

MFI at 50 nM [3]: 614
B12: variant PD-L2 IgV-Fc E44D, V89D, W91R (Fc fusion)
chain: B9 chain with Q15H, E44D, V89D, W91R

Fortebio binding to PD-1-Fc Response Units (Response Units) (PD-1-Fc (Homo sapiens)): 0.003
Fold increase over wildtype PD-L2 IgV-Fc [3]: 0.57
MFI at 50 nM [3]: 5560
B13: variant PD-L2 IgV-Fc G28V, Q72H, R76G, I86T (Fc fusion)
chain: B9 chain with Q15H, G28V, Q72H, R76G, I86T

MFI at 50 nM [3]: 830
B14: variant PD-L2 IgV-Fc H15Q, C23S, I86T (Fc fusion)
chain: B9 chain with C23S, I86T

Fortebio binding to PD-1-Fc Response Units (Response Units) (PD-1-Fc (Homo sapiens)): -0.04
Fold increase over wildtype PD-L2 IgV-Fc [3]: 0.48
MFI at 50 nM [3]: 4740
B15: variant PD-L2 IgV-Fc I13V, H15Q, R76G, I85F (Fc fusion)
chain: B9 chain with I13V, R76G, I85F

Fortebio binding to PD-1-Fc Response Units (Response Units) (PD-1-Fc (Homo sapiens)): 0.016
Fold increase over wildtype PD-L2 IgV-Fc [3]: 2.7
MFI at 50 nM [3]: 26600
B16: variant PD-L2 IgV-Fc H15Q, T47A (Fc fusion)
chain: B9 chain with T47A

Fortebio binding to PD-1-Fc Response Units (Response Units) (PD-1-Fc (Homo sapiens)): 0.31
Fold increase over wildtype PD-L2 IgV-Fc [3]: 1.8
MFI at 50 nM [3]: 17700
B17: variant PD-L2 IgV-Fc H15Q, V89D (Fc fusion)
chain: B9 chain with V89D

MFI at 50 nM [3]: 2880
B18: variant PD-L2 IgV-Fc H15Q, E44D, R76G, I85F (Fc fusion)
chain: B9 chain with E44D, R76G, I85F

Fortebio binding to PD-1-Fc Response Units (Response Units) (PD-1-Fc (Homo sapiens)): 1.28
Fold increase over wildtype PD-L2 IgV-Fc [3]: 4.59
MFI at 50 nM [3]: 45200
B19: variant PD-L2 IgV-Fc I13V, E44D, Q82R, V89D (Fc fusion)
chain: B9 chain with I13V, Q15H, E44D, Q82R, V89D

Fortebio binding to PD-1-Fc Response Units (Response Units) (PD-1-Fc (Homo sapiens)): 1.25
B20: variant PD-L2 IgV-Fc I13V, H15Q, T37A, E44D, S48C, S67L, Q82R, V89D (Fc fusion)
chain: B9 chain with I13V, T37A, E44D, S48C, S67L, Q82R, V89D

Fortebio binding to PD-1-Fc Response Units (Response Units) (PD-1-Fc (Homo sapiens)): -0.039
Fold increase over wildtype PD-L2 IgV-Fc [3]: 0.14
MFI at 50 nM [3]: 1410
B21: variant PD-L2 IgV-Fc N24D (Fc fusion)
chain: B9 chain with Q15H, N24D

Fortebio binding to PD-1-Fc Response Units (Response Units) (PD-1-Fc (Homo sapiens)): 0.025
Fold increase over wildtype PD-L2 IgV-Fc [3]: 0.29
MFI at 50 nM [3]: 2870
B22: variant PD-L2 IgV-Fc H15Q, S67L, R76G, I85F (Fc fusion)
chain: B9 chain with S67L, R76G, I85F

Fortebio binding to PD-1-Fc Response Units (Response Units) (PD-1-Fc (Homo sapiens)): 1.45
Fold increase over wildtype PD-L2 IgV-Fc [3]: 6.2
MFI at 50 nM [3]: 61000
B23: variant PD-L2 IgV-Fc I13V, H15Q, T47A, Q82R, V89D (SEQ ID NO 725) (Fc fusion)
chain: B9 chain with I13V, N24D, Q82R, V89D

Fortebio binding to PD-1-Fc Response Units (Response Units) (PD-1-Fc (Homo sapiens)): -0.006
Fold increase over wildtype PD-L2 IgV-Fc [3]: 0.3
MFI at 50 nM [3]: 2930
B24: variant PD-L2 IgV-Fc E44D (Fc fusion)
chain: B9 chain with Q15H, E44D

Fortebio binding to PD-1-Fc Response Units (Response Units) (PD-1-Fc (Homo sapiens)): 0.005
Fold increase over wildtype PD-L2 IgV-Fc [3]: 0.34
MFI at 50 nM [3]: 3360
B25: variant PD-L2 IgV-Fc V89D (Fc fusion)
chain: B9 chain with Q15H, V89D

MFI at 50 nM [3]: 16000
B26: variant PD-L2 IgV-Fc S67L, V89D (Fc fusion)
chain: B9 chain with Q15H, S67L, V89D

Fortebio binding to PD-1-Fc Response Units (Response Units) (PD-1-Fc (Homo sapiens)): 0.512
Fold increase over wildtype PD-L2 IgV-Fc [3]: 3.26
MFI at 50 nM [3]: 32100
B27: variant PD-L2 IgV-Fc H15Q, T47A, Q72H, R76G, I86T (Fc fusion)
chain: B9 chain with T47A, Q72H, R76G, I86T

MFI at 50 nM [3]: 9840
B28: Wild Type PD-L2 IgV (Fc fusion)
chain: B9 chain with Q15H

Fortebio binding to PD-1-Fc Response Units (Response Units) (PD-1-Fc (Homo sapiens)): 1.2
B29: variant PD-L2 IgV-Fc H15Q, Q82R, V89D (Fc fusion)
chain: B9 chain with Q82R, V89D

MFI at 50 nM [3]: 12600
B30: variant PD-L2 IgV-Fc H15Q, Q72H, V89D (Fc fusion)
chain: B9 chain with Q72H, V89D

MFI at 50 nM [3]: 45000
B31: variant PD-L2 IgV-Fc Q82R, V89D (Fc fusion)
chain: B9 chain with Q15H, Q82R, V89D

Fortebio binding to PD-1-Fc Response Units (Response Units) (PD-1-Fc (Homo sapiens)): 1.6
B32: variant PD-L2 IgV-Fc I13V, H15Q, T47A, R76G, V89D (Fc fusion)
chain: B9 chain with I13V, T47A, R76G, V89D

Fortebio binding to PD-1-Fc Response Units (Response Units) (PD-1-Fc (Homo sapiens)): -0.005
Fold increase over wildtype PD-L2 IgV-Fc [3]: 0.05
MFI at 50 nM [3]: 529
B33: variant PD-L2 IgV-Fc S67L, I85F (Fc fusion)
chain: B9 chain with Q15H, S67L, I85F

Fortebio binding to PD-1-Fc Response Units (Response Units) (PD-1-Fc (Homo sapiens)): -0.001
Fold increase over wildtype PD-L2 IgV-Fc [3]: 1.37
MFI at 50 nM [3]: 13500
B34: variant PD-L2 IgV-Fc H15Q, K65R (Fc fusion)
chain: B9 chain with K65R

MFI at 50 nM [3]: 61000
B35: variant PD-L2 IgV-Fc I13V, H15Q, E44V, T47A, Q82R, V89D (Fc fusion)
chain: B9 chain with I13V, E44V, T47A, Q82R, V89D
